Source: patent US11773160

Assays:
[1] = molecular target: trimeric IL-2 receptor on HEK-Blue IL-2 reporter cells (UniProt P01589); experiment: cell-based or functional assay
[2] = molecular target: IL-2R on murine splenocytes (C57BL/6); experiment: cell-based or functional assay

trimeric IL-2 receptor on HEK-Blue IL-2 reporter cells, sequence (P01589 22-272 limits assumed, chain 1 of 3): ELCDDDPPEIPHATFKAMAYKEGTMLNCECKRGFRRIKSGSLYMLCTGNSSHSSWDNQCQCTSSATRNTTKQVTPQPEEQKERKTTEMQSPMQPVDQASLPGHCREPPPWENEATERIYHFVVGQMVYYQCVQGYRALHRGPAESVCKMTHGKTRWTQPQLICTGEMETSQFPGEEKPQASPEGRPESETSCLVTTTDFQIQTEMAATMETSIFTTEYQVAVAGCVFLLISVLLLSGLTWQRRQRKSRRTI
trimeric IL-2 receptor on HEK-Blue IL-2 reporter cells, sequence (P14784 27-551 limits assumed, chain 2 of 3, further chain): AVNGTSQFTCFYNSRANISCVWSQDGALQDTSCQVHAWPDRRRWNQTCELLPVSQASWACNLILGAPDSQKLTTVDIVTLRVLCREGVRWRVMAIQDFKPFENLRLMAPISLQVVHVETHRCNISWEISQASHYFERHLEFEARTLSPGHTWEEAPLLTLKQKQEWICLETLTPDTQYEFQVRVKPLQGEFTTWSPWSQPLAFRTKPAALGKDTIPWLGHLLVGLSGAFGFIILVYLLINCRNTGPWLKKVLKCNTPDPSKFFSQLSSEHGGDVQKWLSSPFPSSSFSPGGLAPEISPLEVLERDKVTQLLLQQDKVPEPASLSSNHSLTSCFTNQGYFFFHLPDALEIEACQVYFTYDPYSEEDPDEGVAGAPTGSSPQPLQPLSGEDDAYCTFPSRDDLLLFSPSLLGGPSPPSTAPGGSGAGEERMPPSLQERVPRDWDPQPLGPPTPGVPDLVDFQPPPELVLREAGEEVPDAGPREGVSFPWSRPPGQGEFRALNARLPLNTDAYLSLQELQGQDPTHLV
trimeric IL-2 receptor on HEK-Blue IL-2 reporter cells, sequence (P31785 23-369 limits assumed, chain 3 of 3, further chain): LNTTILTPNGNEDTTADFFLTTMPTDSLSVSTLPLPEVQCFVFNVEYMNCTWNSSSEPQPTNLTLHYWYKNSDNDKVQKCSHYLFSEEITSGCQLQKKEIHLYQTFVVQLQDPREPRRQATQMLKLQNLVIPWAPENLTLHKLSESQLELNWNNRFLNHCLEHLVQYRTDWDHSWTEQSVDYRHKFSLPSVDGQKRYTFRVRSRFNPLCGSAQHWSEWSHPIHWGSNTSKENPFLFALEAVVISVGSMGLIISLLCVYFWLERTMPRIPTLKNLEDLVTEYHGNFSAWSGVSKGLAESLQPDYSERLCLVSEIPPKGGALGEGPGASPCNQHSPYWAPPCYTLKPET

- EC50 (M), SEAP of HEK-Blue IL-2 reporter cells [1]: 4.28e-12 M
- EC50 CD8 cells (nM), pSTAT5 MFI [2]: 4.1 nM
- EC50 NK cells (nM), pSTAT5 MFI [2]: 1.4 nM
- EC50 Treg cells (nM), pSTAT5 MFI [2]: < 0.016 nM
Substance: Proleukin (aldesleukin) (from UniProt P60568 22-153) (ligand)
